Drawing on paper PMC2765987 (2009), this text covers percent of parent for 3 variants.

Sequences and labels used below:
B1: FLAG-tagged PP6R3 (full-length, residues 1-873) [human] / PP6 catalytic subunit, endogenous [human (endogenous in HEK293, HeLa, HepG2, Jurkat)] (parent complex)
chain 1: MFWKFDLHSSSHIDTLLEREDVTLKELMDEEDVLQECKAQNRKLIEFLLKAECLEDLVSFIIEEPPQDMDEKIRYKYPNISCELLTSDVSQMNDRLGEDESLLMKLYSFLLNDSPLNPLLASFFSKVLSILISRKPEQIVDFLKKKHDFVDLIIKHIGTSAIMDLLLRLLTCIEPPQPRQDVLNWLNEEKIIQRLVEIVHPSQEEDRHSNASQSLCEIVRLSRDQMLQIQNSTEPDPLLATLEKQEIIEQLLSNIFHKEKNESAIVSAIQILLTLLETRRPTFEGHIEICPPGMSHSACSVNKSVLEAIRGRLGSFHELLLEPPKKSVMKTTWGVLDPPVGNTRLNVIRLISSLLQTNTSSINGDLMELNSIGVILNMFFKYTWNNFLHTQVEICIALILASPFENTENATITDQDSTGDNLLLKHLFQKCQLIERILEAWEMNEKKQAEGGRRHGYMGHLTRIANCIVHSTDKGPNSALVQQLIKDLPDEVRERWETFCTSSLGETNKRNTVDLVTTCHIHSSSDDEIDFKETGFSQDSSLQQAFSDYQMQQMTSNFIDQFGFNDEKFADQDDIGNVSFDRVSDINFTLNTNESGNIALFEACCKERIQQFDDGGSDEEDIWEEKHIAFTPESQRRSSSGSTDSEESTDSEEEDGAKQDLFEPSSANTEDKMEVDLSEPPNWSANFDVPMETTHGAPLDSVGSDVWSTEEPMPTKETGWASFSEFTSSLSTKDSLRSNSPVEMETSTEPMDPLTPSAAALAVQPEAAGSVAMEASSDGEEDAESTDKVTETVMNGGMKETLSLTVDAKTETAVFKSEEGKLSTSQDAACKDAEECPETAEAKCAAPRPPSSSPEQRTGQPSAPGDTSVNGPV
chain 2: MAPLDLDKYVEIARLCKYLPENDLKRLCDYVCDLLLEESNVQPVSTPVTVCGDIHGQFYDLCELFRTGGQVPDTNYIFMGDFVDRGYYSLETFTYLLALKAKWPDRITLLRGNHESRQITQVYGFYDECQTKYGNANAWRYCTKVFDMLTVAALIDEQILCVHGGLSPDIKTLDQIRTIERNQEIPHKGAFCDLVWSDPEDVDTWAISPRGAGWLFGAKVTNEFVHINNLKLICRAHQLVHEGYKFMFDEKLVTVWSAPNYCYRCGNIASIMVFKDVNTREPKLFRAVPDSERVIPPRTTTPYFL

Variants of B1 are the subject of this assay. Put plainly: co-immunoprecipitation (anti-FLAG) with quantitative fluorescent immunoblotting; expressed in HEK293 cells; endogenous PP6c; 3 independent experiments; parent: 100; read off a plot. In general terms: A western blot detects proteins with antibodies after separation by electrophoresis.
As for chain 1 D113R, the percent of parent was ~91 PP6c / FLAG (wild type = 100).

Turning to chain 1 E204K, chain 1 E205K, the percent of parent was ~75 PP6c / FLAG (wild type = 100).

For chain 1 E259K, chain 1 E262K, the percent of parent was ~64 PP6c / FLAG (wild type = 100).
